13 sequences from the DeepSol protein solubility set can be followed below.

This data set can be described thus: soluble on expression in E. coli; label from the status in PepcDB or PDB records.
For “MAEITEKVLKKPNAIPDVFERKGGSAPTATHYCAGCGHGIIHKLMAEAIDELEIQDRCVLISPVGCAVFAYYYFDCGNIQVAHGRAPAVGTGVSRAEDNAIVMSYQGDGDLASIGLNETIQAANRGEKMAVFFVNNTVYGMTGGQMAPTTLIGEKTVTCQTGRDPRFAGYPIHMCELLSSLKAPVFIERVSVSDIAHIRKAKRAIKKALEIQRDGKGYAFVEILSPCPTNLRQDANAAQKFINEEMEKEFPLQNFRDRSAEVETLNRGESDFSKECLDNIFEVNSKGAEDPSEDLSFE”, the “soluble on expression in E. coli” value was “not soluble”. As for “MAEKPHMNLVVIGHVDHGKSTLVGHLLYRLGYIEEKKLKELEEQAKSRGKESFKFAWILDKMKEERERGITIDLTFMKFETKKYVFTIIDAPGHRDFVKNMITGASQADAAILVVSARKGEFEAGMSTEGQTREHLLLARTMGIEQIIVAVNKMDAPDVNYDQKRYEFVVSVLKKFMKGLGYQVDKIPFIPVSAWKGDNLIERSPNMPWYNGPTLVEALDQLQPPAKPVDKPLRIPVQNVYSIPGAGTVPVGRVETGVLRVGDKVVFMPPGVVGEVRSIEMHYQQLQQAEPGDNIGFAVRGVSKSDIKRGDVAGHLDKPPTVAEEFEARIFVIWHPSAITVGYTPVIHVHTASVSSRIIEIKAKLDPKTGQVVEQNPQFLKAGDAAIVRFKPVKPLVVEKFSEIPQLGRFAMRDMNRTVGIGIVTDVKPAKVDIKAK”, the “soluble on expression in E. coli” value is reported as “soluble”. Turning to “MAELIHSTIGRLLEQTADAYPDRDAVVYPDRNIRYTYAQFDSLCRQTAKGLMRMGIGKGDHVAIWASNISEWLAVQFATAKIGAVLVTVNTNYQAHELDYLLKQSDAAALIIMDSYRGTSYPDIVNSLIPELQEAKPGQLKSERYPFLKTLIYIGNKRLSGMYHWDDTEILAKTVTDAELEERMNSLDKDNVINMQYTSGTTGFPKGVMLTHFNVINNAANIAECMALTSQDRMCIPVPFFHCFGCVLGVLACVSVGAAMIPVQEFDPVTVLKTVEKEKCTVLHGVPTMFIAELHHPDFDAYDLSTLRTGIMAGSPCPSEVMKAVIERMGMKDITIAYGQTEASPVITQTRANDSFIRRVETTGRALPHTEVKIVEPGTCQEVQRGMQGELCTRGYHVMKGYYKDKDATRKAINHDGWLFTGDLAVMDEDGYCRITGRLKDMLIRGGENIYPREIEEFLYQHPAVLDVQVVGVPDAKFGEEAAAWIKLKDGKSVSPDELKAYCKGKIARHKIPRYVIFTDDYPMTASGKIQKY”, the “soluble on expression in E. coli” value is “not soluble”.

In the case of “MAELWEIVSFLDEYLKISEYPDKSSNGLQVEGKEEVNTIAFAVDACLDTIVKARAFNADMLIVHHGLIWGGVKYVKGLFAKRVKELLKSNMNLYAAHLPLDAHPEVGNNAQLLKLLGLEPKEKFGEYHGVMIGYIGEFEEEKPLPLIAQMLAEKLPVDYVKSYEFGVQEIKRVGVVSGGGGFAVEEASEKGVDLFITGEFTHEDYRAAEDLRLSVIAAGHYATETLGVKALMPILREKFGVKTIFIDSPTGLLEHHHHHH”, the “soluble on expression in E. coli” value is recorded as “soluble”. On to “MAEMDERFQQILSWQQMDQNKAISQILQESAMQKAAFEALQVKKDLMHRQIRSQIKLIETELLQLTQLELKRKSLDTESLQEMISEQRWALSSLLQQLLKEKQQREEELREILTELEAKSETRQENYWLIQYQRLLNQKPLSLKLQEEGMERQLVALLEELSAEHYLPIFAHHRLSLDLLSQMSPGDLAKVGVSEAGLQHEILRRVQELLDAARIQPELKPPMGEVVTPTAPQEPPESVRPSAPPAELEVQASECVVCLEREAQMIFLNCGHVCCCQQCCQPLRTCPLCRQDIAQRLRIYHSS”, for which the “soluble on expression in E. coli” value is reported as “soluble”. On to “MAENKTINKEQNRTENNEIVIMNFSGIYKEQQFYRNHAEMQEDISWLEVQDLPGSNCYCDEEAKNRILDDIKNYTGNGIHFIDSGNYHYVSRLWLSKMEHPFRLLVFDNHTDMQLPAFGGLLSCGGWIAASLEEVPMLQEVILVGPDEEAYMQVEPEFQQKVQFLSREKLLAMTGEEKNTFFRNLRADLPMYISVDKDVLCTADASTTWSQGDMSLEKLQKFLEIVLQQQQILGMDICGECDPDACERNLLNDRANQKLLELWKKYFPQIRERRQDI”, for which the “soluble on expression in E. coli” value is “not soluble”.

As for “MAEPLQPDPGAAEDAAAQAVETPGWKAPEDAGPQPGSYEIRHYGPAKWVSTSVESMDWDSAIQTGFTKLNSYIQGKNEKEMKIKMTAPVTSYVEPGSGPFSESTITISLYIPSEQQFDPPRPLESDVFIEDRAEMTVFVRSFDGFSSAQKNQEQLLTLASILREDGKVFDEKVYYTAGYNSPVKLLNRNNEVWLIQKNEPTKENE”, the “soluble on expression in E. coli” value is on record as “soluble”. Then “MAEPQPASSGLTDETAFSCCSDPDPSTKDFLLQQTMLRIKDPKKSLDFYTRVLGLTLLQKLDFPAMKFSLYFLAYEDKNDIPKDKSEKTAWTFSRKATLELTHNWGTEDDETQSYHNGNSDPRGFGHIGIAVPDVYSACKRFEELGVKFVKKPDDGKMKGLAFIQDPDGYWIEILNPNKIATII”, with “soluble”; and “MAEQRWTGQLDLTVFNNGQSSKARNIFFEKALKVLRPIYLEQSPVPTFYIVNVGGGYLDGDRYRVNVNLEDNAQVTLTSQGATKIYKTPNDHVEQYQTFNLSNQSYMEFVADPIIAYENAKFFQHNTFNLKEDSAMFYTDILTPGYSSNGQDFTYNYMHLINEIYIDNQLVVFDNMMLSPDKSRLDGIGYMENYTHLGSAYFIHPDVNQSFIDDIYAAVADFQKQYDCRIGISQLPTHGLAVRILTKRTQIIEEILTRVQSYINQTIYHRQINFLRKYLEHHHHHH”, with “not soluble”; and “MAEQSDKDVKYYTLEEIQKHKDSKSTWVILHHKVYDLTKFLEEHPGGEEVLREQAGGDATENFEDVGHSTDARELSKTYIIGELHPDDRSKIAKPSETL”, with “soluble”. On to “MAEQYSEINTDTLERVTEIFKALGDYNRIRIMELLSVSEASVGHISHQLNLSQSNVSHQLKLLKSVHLVKAKRQGQSMIYSLDDIHVATMLKQAIHHANHPKESGL”, for which the “soluble on expression in E. coli” value is “soluble”. As for “MAERKYFGTDGVRGKVGQFPITPDFALKLGWAAGKILATQGTKQVLIGKDTRISGYMLESALEAGLAAAGLSAAFVGPMPTPAVAYLTRTFRAEAGIVISASHNPYYDNGIKFFSANGEKLPDEVEEAIEALLDQPMDYVESDQLGKAIRINDAAGRYIEFCKGTFPADASLKGYKIVVDCAHGATYHIAPNVMRELGAEVIEIGTHPNGLNINDKCGATDISALQQAVLTSKADLGVAYDGDGDRIIMVDHLGNKVDGDQILFIIAREALRSGKLKGGVVGTLMSNMGLEIALKHLAIPFTRANVGDRYVLEQLKEKNWKLGGENSGHIIVLDKNTTGDGIIASLEVLAAMEAHKMSLNDLTHAVPLFPQVLLNVRFDGGNNPLENAAVKALAKDIETRLVGKGRILLRKSGTEPLIRVMVECEDAVLAQQYAEEIVSAIQNH”, the “soluble on expression in E. coli” value was “not soluble”.

On to “MAESLITKKAIAGGLMELCQHKRFEKISIADITNICGLNRQTFYYHFTDKYDLLTWTYENDFFHCLADGITLENWDKHVLKMLESIKENADFYKNTVSADASILSFCFSKLTNSLFMDLFEKIDTNGAVNEADRVFYAEFFSYGCSGVLIKWITRGFKEAPETIANQLFRLAKDTEFLANSMYRENLEHHHHHH”, for which the “soluble on expression in E. coli” value was “soluble”.
